# Measurements from patent US20210330736A1 (UNIVERSITEIT VAN AMSTERDAM, priority 2018, published 2021).
# Bridges are numbered along the chain shown (N, C = ends). Where no end group is shown, it is not given here.
# B1: peptide 3 (peptide)
# peptide: H-NDDCELCVNVACTGC-OH
# modifications: disulfide 4-12, 7-15
# SMILES: CC(C)C[C@@H]1NC(=O)[C@H](CCC(=O)O)NC(=O)[C@@H](NC(=O)[C@H](CC(=O)O)NC(=O)[C@H](CC(=O)O)NC(=O)[C@@H](N)CC(N)=O)CSSC[C@@H]2NC(=O)[C@H](C)NC(=O)[C@H](C(C)C)NC(=O)[C@H](CC(N)=O)NC(=O)[C@H](C(C)C)NC(=O)[C@H](CSSC[C@@H](C(=O)O)NC(=O)CNC(=O)[C@H]([C@@H](C)O)NC2=O)NC1=O
# B2: peptide 1 (peptide)
# peptide: H-NDDCELCVNVACTGCL-OH
# modifications: disulfide 4-12, 7-15
# SMILES: CC(C)C[C@H](NC(=O)[C@@H]1CSSC[C@@H]2NC(=O)[C@H](CC(C)C)NC(=O)[C@H](CCC(=O)O)NC(=O)[C@@H](NC(=O)[C@H](CC(=O)O)NC(=O)[C@H](CC(=O)O)NC(=O)[C@@H](N)CC(N)=O)CSSC[C@H](NC(=O)[C@H](C)NC(=O)[C@H](C(C)C)NC(=O)[C@H](CC(N)=O)NC(=O)[C@H](C(C)C)NC2=O)C(=O)N[C@@H]([C@@H](C)O)C(=O)NCC(=O)N1)C(=O)O
# Key:
# GUCY2C = GUCY2C (Homo sapiens, UniProt P25092); test: Th Ser40 phosphorylation in HEK cells co-transfected with Th and GUCY2C (western blot); type: cell-based; set-up: expressed in transfected cells; host or cells: HEK cells (ATCC), calcium-phosphate transfection, co-transfected with mouse Th; conditions: guanylin 10 μM, uroguanylin 1 μM, IBMX 100 μM, 1 hour
# Protocol: FIG. 4. GUCY2C activation increases Ser40 phosphorylation. Immunocytochemistry images (A) and western blotting analysis (B) of HEK cultures transfected with Th or Th+GUCY2C. (C) Co-transfected HEK cells were treated with guanylin (G) or uroguanylin (UroG) and changes in Ser40 phosphorylation were studied. The graph represents the statistical analysis (n=3 for Control, n=6 for Guanylin, n=9 for Uroguanylin; Mean±SEM). Unpaired Student's t-test (p-value: **<0.01).
# FIG. 5. […] (A) HEK cultures were treated with guanylin, in the presence or absence of IBMX. […] Unpaired Student's t-test (p-values: ****<0.0001, **<0.01, *<0.05). (B) HEK cells were co-transfected with Th and either the wt GUCY2C or a gain-of-function mutant (R792S). Ser40 phosphorylation was studied following guanylin treatment (G). […] Unpaired Student's t-test (p-values: ***<0.001, **<0.01).
# HEK cells were maintained in 100-mm Petri dishes and grown in DMEM medium supplemented with L-glutamine, penicillin-streptomycin (Pen&Strep) and 10% heat-inactivated fetal bovine serum (HIFBS). Growing conditions were 37° C. and 5% CO2. For every-other-day passages, HEK cultures were split at a 1:3 dilution. From Friday to Monday, the split proportion was doubled for all cell lines. For passaging, cultures were rinsed with PBS and incubated with 1 mL of trypsin during 5 minutes. Cells were resuspended in growth medium and finally split to the proper dilution. The experiments were performed in 12-well plates. For immunocytochemistry analysis, sterile 18-mm coverslips were added prior to the plating. 500 !μL of cell resuspension was seeded in each well. If experiments were to be performed 48 hours after the plate preparation, 1:5 was the seeding ratio for HEK cells. When the experiments took place 96 hours post-plating, 1:7 was the working dilution for HEK cells. Unless otherwise stated, HEK cultures were processed 96 hours post-plating.
# HEK cells were transfected using the calcium-phosphate method. 12-well plates were refreshed with 500 μL of growth medium before transfection. […]
# PDE7 = conditions: cited from earlier work
# [1] = target: GUCY2C R792S gain-of-function mutant (human) (UniProt P25092)
# [2] = target: mouse GUCY2C (endogenous, in mouse striatal slices) (mouse, UniProt Q3UWA6); test: cell-based or functional assay
# GUCY2C, sequence (P25092 24-1073): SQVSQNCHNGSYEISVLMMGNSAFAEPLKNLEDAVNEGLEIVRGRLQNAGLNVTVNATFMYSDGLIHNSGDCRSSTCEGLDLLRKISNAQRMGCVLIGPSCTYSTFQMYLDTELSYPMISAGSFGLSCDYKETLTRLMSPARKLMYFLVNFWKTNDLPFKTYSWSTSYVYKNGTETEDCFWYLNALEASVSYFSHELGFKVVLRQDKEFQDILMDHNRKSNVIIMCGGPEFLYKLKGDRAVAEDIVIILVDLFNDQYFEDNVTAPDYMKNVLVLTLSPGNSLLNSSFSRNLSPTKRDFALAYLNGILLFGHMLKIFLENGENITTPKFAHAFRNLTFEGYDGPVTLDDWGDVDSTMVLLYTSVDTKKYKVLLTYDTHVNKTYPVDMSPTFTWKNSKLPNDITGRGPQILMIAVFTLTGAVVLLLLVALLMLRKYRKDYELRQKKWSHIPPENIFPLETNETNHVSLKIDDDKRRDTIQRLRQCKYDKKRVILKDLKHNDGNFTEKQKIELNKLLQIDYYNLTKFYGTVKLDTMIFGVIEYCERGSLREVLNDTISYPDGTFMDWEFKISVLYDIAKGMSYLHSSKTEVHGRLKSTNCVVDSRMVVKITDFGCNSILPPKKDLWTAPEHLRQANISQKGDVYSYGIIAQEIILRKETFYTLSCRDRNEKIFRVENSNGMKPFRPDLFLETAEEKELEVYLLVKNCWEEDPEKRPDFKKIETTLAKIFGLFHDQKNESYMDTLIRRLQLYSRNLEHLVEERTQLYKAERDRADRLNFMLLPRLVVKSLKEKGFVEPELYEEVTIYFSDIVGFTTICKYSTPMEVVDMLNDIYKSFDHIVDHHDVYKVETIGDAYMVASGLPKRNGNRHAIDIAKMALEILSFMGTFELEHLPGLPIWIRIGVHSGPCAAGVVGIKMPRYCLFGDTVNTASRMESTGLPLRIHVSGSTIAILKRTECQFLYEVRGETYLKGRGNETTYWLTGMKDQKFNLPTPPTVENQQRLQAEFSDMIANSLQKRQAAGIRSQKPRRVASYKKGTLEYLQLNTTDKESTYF
molecule,measurement,setting,value
"CC(C)Cn1c(=O)n(C)c(=O)c2[nH]cnc21 [IBMX, 3-isobutyl-1-methylxanthine]",P-Ser40 levels / Ser40 phosphorylation (in words),GUCY2C,potentiated the increase in Ser40 phosphorylation
OCCN(CCO)c1nc(N2CCCCC2)c2nc(N(CCO)CCO)nc(N3CCCCC3)c2n1 [Dipyridamole],IC50,PDE7,600 nM
guanylin (Example 1) (ligand),Ser40 phosphorylation of Th upon guanylin treatment (western blot) (fold higher than with the wt receptor),[1],1.5
"uroguanylin: natural agonistic ligand of GUCY2C, 16 amino acid peptide (NDDCELCVNVACTGCL; disulfide 4-12, 7-15; UniProt Q16661 97-112, looked up)",P-Ser40 levels / Ser40 phosphorylation (in words),GUCY2C,increase P-Ser40 levels
B1,"P-S40 TH/TTH, fold change (average), mouse striatal slices, 10 µM, 1 h (WES)",[2],1.2 fold change (average)
B2,"P-S40 TH/TTH, fold change (average), mouse striatal slices, 10 µM, 1 h (WES)",[2],1.11 fold change (average)
